Consider ten molecules from patent US20240409648A1 (Boehringer Ingelheim, published 2024).

Numbering of substitutions follows the chain as printed.

B1: Mouse 81B4 (antibody 81B4) (antibody, V domains shown)
VH: QVQLQQPGADFVRPGASMRLSCKASGYSFTSSWIHWVKQRPGQGLEWIGEINPGNVRTNYNENFRNKATLTVDKSSTTAYMQLRSLTSADSAVYYCTVVFYGEPYFPYWGQGTLVTVSA
VL: QIVLTQSPAIMSASLGERVTMTCTASSSVSSSYFHWYQQKPGSSPKLWIYRTSNLASGVPGRFSGSGSGTSYSLTISSMEAEDAATYYCHQFHRSPLTFGAGTKLELK
B2: antibody 172C8 (antibody, V domains shown)
VH: EVQLQQSGPELVKPGASVKLSCKASGYTFTDNYMNWVRQSHGKSLEWIGRVNPSNGDTKYNQNFKGKATLTVDKSLSTAYMQLNGLTSEDSAVYYCGRTKNFYSSYSYDDAMDYWGQGTSVTVSS
VL: DIQMTQSPASQSASLGESVTFTCLASQTIGTWLAWYQQRPGKSPQLLIYAATSLADGVPSRFSGSGSGTQFSFNIRSLQAEDFASYYCQQVYTTPLTFGGGTKLEIK
B3: Mouse 78C8 (antibody 78C8) (antibody, V domains shown)
VH: QVQLKESGPVLVAPSQSLSITCTVSGFSLTKFGVHWIRQTPGKGLEWLGVIWAGGPTNYNSALMSRLTISKDISQSQVFLRIDSLQTDDTAMYYCAKQIYYSTLVDYWGQGTSVTVSS
VL: DVLLTQTPLSLPVSLGDQASISCRSSQNIVHSNGNTYLQWYLQKPGQSPKLLIYKVSNRFSGVPDRFSGSGSGTDFTLKISRVEAEDLGVYYCFQGSHVPFTFGAGTKLELK
B4: antibody 76E10 (antibody, V domains shown)
VH: QVQLKESGPVLVAPSQSLSITCTVSGFSLTNYGVHWVRQPPGKGLEWLGVIWPVGSTNYNSALMSRLSIHKDNSKSQVFLRMNSLQTDDTAIYYCAKMDWDDFFDYWGQGTTLTVSS
VL: DIVMTQSQKFMSATVGGRVNITCKASQNVGRAVAWYQQKPGQSPKLLTHSASNRYTGVPDRFTGSGSGTDFTLTITNMQSEDLADYFCQQYSSYPLTFGAGTKLDLK
B5: antibody 89A12 (antibody, V domains shown)
VH: EVQLQQSGAELVRPGASVRLSCTASGFNIKDDYIHWVRQRPKQGLEWLGRIDPANGNTKYDPRFQDKATITADTSSNTAYLHLSSLTSEDTAVYYCAKSFPDNYYSYDDAFAYWGQGTLVTVSA
VL: DIQMTQSPASQSASLGESVTFSCLASQTIGTWLGWYQQKPGKSPQLLIYRATSLADGVPSRFSGSGSGTNFSFKISSLQAEDLASYYCQQLYSGPYTFGGGTKLEIR
B6: antibody 67E7 (antibody, V domains shown)
VH: B5 VH with L11F, R19K, L20F, K42E, L48V, D61A, R63K, H82Q, D102N
VL: B5 VL with S22T, A51S, S53T, N70K, E81A, L83F, G94A
B7: Mouse 81A1 (antibody 81A1) (antibody, V domains shown)
VH: QVQLKESGPGLVAPSQSLFITCTVSGFSLSSYEINWVRQVPGKGLEWLGVIWTGITTNYNSALISRLSISKDNSKSLVFLKMNSLQTDDTAIYYCARGTGTGFYYAMDYWGQGTSVTVSS
VL: DIQMTQTTSSLSASLGDRVTISCRASQDIYKYLNWYQQKPDGTLKLLIYYTSGLHSGVPSRFSGSGSGTDFSLTISNLEPEDIATYFCQQDSKFPWTFGGDTKLEIK
B8: Mouse 73C5 (antibody 73C5) (antibody, V domains shown)
VH: QVQLKESGPGLVAPSQSLSITCTVSGFSLTNYAVHWVRQFPGKGLEWLGVIWSDGSTDFNAPFKSRLSINKDNSKSQVFFKMNSLQIDDTAIYYCARKGGYSGSWFAYWGQGTLVTVSA
VL: DIVMTQSQKFLSTSVGVRVSVTCKASQDVGTNVLWYQQKIGQSPKPLIYSASYRHSGVPDRFTGSGSGTDFTLIISNVQSEDLAEYFCQQYSRYPLTFGPGTKLELK
B9: Mouse 73F6 (antibody 73F6) (antibody, V domains shown)
VH: B8 VH with F59Y, I87T
VL: B8 VL with P46A, S76T
B10: Mouse 33D10 (antibody 33D10) (antibody, V domains shown)
VH: QVQLQQSGTELLKPGASVKLSCKASGNTVTSYWMHWVKQRPGQGLEWIGEILPSTGRTNYNENFKGKAMLTVDKSSSTAYMQLSSLASEDSAVYYCTIVYFGNPWFAYWGQGTLVTVSA
VL: B1 VL with F34L, Q39K, I49V, R51S, G61V, F92H, L97V, A101S, L107M

In the first assay the target is T1, human IL-36R on cells (HEK293 cells transfected with full-length human IL-36R); NCI/ADR-RES cells; human … (human, UniProt Q9HB29 20-575).
T1 sequence (looked up): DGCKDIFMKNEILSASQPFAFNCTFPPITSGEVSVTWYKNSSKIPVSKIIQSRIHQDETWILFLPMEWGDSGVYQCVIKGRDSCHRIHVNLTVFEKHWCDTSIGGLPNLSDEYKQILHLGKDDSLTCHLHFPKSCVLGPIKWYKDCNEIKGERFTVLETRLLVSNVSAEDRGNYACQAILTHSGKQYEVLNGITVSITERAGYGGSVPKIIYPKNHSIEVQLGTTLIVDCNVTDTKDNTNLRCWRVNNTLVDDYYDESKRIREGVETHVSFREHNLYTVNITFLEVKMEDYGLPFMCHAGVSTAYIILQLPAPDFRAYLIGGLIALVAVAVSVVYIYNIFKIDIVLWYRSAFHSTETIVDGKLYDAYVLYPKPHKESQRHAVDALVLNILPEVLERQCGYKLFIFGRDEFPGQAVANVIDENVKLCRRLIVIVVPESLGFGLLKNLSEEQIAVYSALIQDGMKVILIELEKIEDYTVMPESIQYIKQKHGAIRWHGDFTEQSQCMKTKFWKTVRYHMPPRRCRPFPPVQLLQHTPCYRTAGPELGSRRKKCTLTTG
Put plainly: cell-based or functional assay.
As for B1, the “IC90 pNFκB, trun-IL-36g, human primary keratinocytes (NHK)” value is 0.5 nM.

Another assay addresses cynomolgus IL-36R on BaF/3 cells (cynomolgus). Briefly: cell-based or functional assay.
As to B2, the “IC90 pNFκB, trun-IL-36a, BaF/3 cynomolgus IL-36R cells” value (shortened to “IC90 pNFκB, trun-IL-36a”) was above 4000 nM; the “IC90 pNFκB, trun-IL-36b, BaF/3 cynomolgus IL-36R cells” value (shortened to “IC90 pNFκB, trun-IL-36b”) was above 333 nM; the “IC90 pNFκB, trun-IL-36g, BaF/3 cynomolgus IL-36R cells” value is above 333 nM.

For B3, the “IC90 pNFκB, trun-IL-36a” value is 1 nM; the “IC90 pNFκB, trun-IL-36b” value was found to be 2.1 nM; the “IC90 pNFκB, trun-IL-36g, BaF/3 cynomolgus IL-36R cells” value came to 1.5 nM.

With B4, the “IC90 pNFκB, trun-IL-36a” value is above 4000 nM; the “IC90 pNFκB, trun-IL-36b” value was above 333 nM; the “IC90 pNFκB, trun-IL-36g, BaF/3 cynomolgus IL-36R cells” value was above 333 nM.

In the case of B5, the “IC90 pNFκB, trun-IL-36a” value was above 4000 nM; the “IC90 pNFκB, trun-IL-36b” value is above 333 nM; the “IC90 pNFκB, trun-IL-36g, BaF/3 cynomolgus IL-36R cells” value is above 333 nM.

With B6, the “IC90 pNFκB, trun-IL-36a” value is above 4000 nM; the “IC90 pNFκB, trun-IL-36b” value was above 333 nM; the “IC90 pNFκB, trun-IL-36g, BaF/3 cynomolgus IL-36R cells” value is above 333 nM.

For B7, the “IC90 pNFκB, trun-IL-36a” value was found to be 0.6 nM; the “IC90 pNFκB, trun-IL-36b” value is 0.9 nM; the “IC90 pNFκB, trun-IL-36g, BaF/3 cynomolgus IL-36R cells” value was 1 nM.

In the case of B8, the “IC90 pNFκB, trun-IL-36a” value came out at 0.2 nM; the “IC90 pNFκB, trun-IL-36b” value was 1.6 nM; the “IC90 pNFκB, trun-IL-36g, BaF/3 cynomolgus IL-36R cells” value was found to be 1.5 nM.

For the molecule B9, the “IC90 pNFκB, trun-IL-36a” value is 0.5 nM; the “IC90 pNFκB, trun-IL-36b” value is 0.7 nM; the “IC90 pNFκB, trun-IL-36g, BaF/3 cynomolgus IL-36R cells” value turned out to be 0.8 nM.

Turning to B1, the “IC90 pNFκB, trun-IL-36a” value worked out at 2.4 nM; the “IC90 pNFκB, trun-IL-36b” value is 3.5 nM; the “IC90 pNFκB, trun-IL-36g, BaF/3 cynomolgus IL-36R cells” value was found to be 5.1 nM.

As for B10, the “IC90 pNFκB, trun-IL-36a” value is above 4000 nM; the “IC90 pNFκB, trun-IL-36b” value was above 333 nM; the “IC90 pNFκB, trun-IL-36g, BaF/3 cynomolgus IL-36R cells” value is above 333 nM.
